Source: publication doi:10.1101/2021.08.06.455374 (bioRxiv, 2021)

Target: the molecule itself
Assay: SEC

B1: dolphin Prestin (SLC26A5) (natural protein)
chain: MDHVEETEILAATQRYYVERPIFSHPVLQERLHKKDKISESIGDKLKQAFTCTPKKIRNIIYMFLPITKWLPAYRFKEYVLGDIVSGISTGVLQLPQGLAFAMLAAVPPVFGLYSSFYPVIMYCFFGTSRHISIGPFAVISLMIGGVAVRLVPDDIVIPGGVNATNSTEARDALRVKVAMSVTLLTGIIQFCLGVCRFGFVAIYLTEPLVRGFTTAAAVHVFTSMLKYLFGVKTKRYSGIFSVVYSTVAVLQNVKNLNVCSLGVGLMVFGLLLGGKEFNERFKEKLPAPIPLEFFAVVMGTGISAGFSLHESYNVDVVGTLPLGLLPPANPDTSLFHLVYVDAIAIAIVGFSVTISMAKTLANKHGYQVDGNQELIALGLCNSTGSLFQTFAISCSLSRSLVQEGTGGKTQLAGCLASLMILLVILATGFLFESLPQAVLSAIVIVNLKGMFMQFSDLPFFWRTSKIELTIWLTTFVSSLFLGLDYGLITAVIIALMTVIYRTQSPSYIVLGQLPDTDVYIDIDAYEEVKEVPGIKIFQINAPIYYANSDLYSSALKRKTGVNPAFILGARRKAMKKYAKEVGNANMANATVVKVDAEVDAEDGTKPEEEEDEIKYPPIVTKSTLPEELQRFMPPGDNVHTIILDFTQVNFMDSVGVKTLAGIVKEYGDVGIYVYLAGCSAQVVSDLTQNQFFENPALLDLLFHSIHDAVLGSQVREALAEQEATAAPPQEDSEPNATPEA
For B1, the “stoichiometry N” value was 2.
